From patent publication US9993529B2, “Stable formulations of a hyaluronan-degrading enzyme” (Halozyme, Inc., priority 2011, dated 2018)

Test: RP-HPLC insulin apparent solubility / percent recovery (content)
Conditions: 7 days at 2-8° C.
Procedure: Apparent solubility was measured as the percent insulin recovery as compared to the initial formulations/conditions.
Samples were prepared by withdrawing 100 μL from each vial at every time point and centrifuging prior to loading. Samples were stored in an autosampler at 4° C. prior to use, and were considered stable for 3 days after preparation. All samples were tested in duplicate.
For insulin, 20 μL was injected for each HPLC run.
To determine the apparent solubility, the peak area of insulin/insulin analog main peak and desamido peak were integrated and combined together to calculate the percentage relative to the standards. […] The data were processed using Design-Expert® 7.0 (StatEase) and the “historical data” feature. Insulin percent purity was expressed as the percent of main insulin versus all insulin species.

For Aspart: AspB28 human insulin analog, the “Solubility of Insulin Aspart” value (0.2% methylparaben + […] m-cresol, pH 6.6, NaCl 50 mM) was 57.7%, the “Solubility of Insulin Aspart” value (0.2% methylparaben + […] m-cresol, pH 6.6, NaCl 80 mM) was 32.1% and the “Solubility of Insulin Aspart” value (0.2% methylparaben + […] m-cresol, pH 6.6, NaCl 110 mM) was 21.1%. For the same substance, the “Solubility of Insulin Aspart” value (0.2% methylparaben + […] m-cresol, pH 6.6, NaCl 140 mM) was 14.7%, the “Solubility of Insulin Aspart” value (0.2% methylparaben + […] m-cresol, pH 6.8, NaCl 50 mM) was 97.2% and the “Solubility of Insulin Aspart” value (0.2% methylparaben + […] m-cresol, pH 6.8, NaCl 80 mM) was 84.1%. The “Solubility of Insulin Aspart” value (0.2% methylparaben + […] m-cresol, pH 6.8, NaCl 110 mM) was 54.2%, the “Solubility of Insulin Aspart” value (0.2% methylparaben + […] m-cresol, pH 6.8, NaCl 140 mM) was 32.2% and the “Solubility of Insulin Aspart” value (0.2% methylparaben + […] m-cresol, pH 7.0, NaCl 50 mM) was 98.7%. For the same substance, the “Solubility of Insulin Aspart” value (0.2% methylparaben + […] m-cresol, pH 7.0, NaCl 80 mM) was 100.2%, the “Solubility of Insulin Aspart” value (0.2% methylparaben + […] m-cresol, pH 7.0, NaCl 110 mM) was 96.3% and the “Solubility of Insulin Aspart” value (0.2% methylparaben + […] m-cresol, pH 7.0, NaCl 140 mM) was 67.9%. For the same substance, the “Solubility of Insulin Aspart” value (0.2% methylparaben + […] m-cresol, pH 7.2, NaCl 50 mM) was 99.0%, the “Solubility of Insulin Aspart” value (0.2% methylparaben + […] m-cresol, pH 7.2, NaCl 80 mM) was 100.2% and the “Solubility of Insulin Aspart” value (0.2% methylparaben + […] m-cresol, pH 7.2, NaCl 110 mM) was 99.5%. The “Solubility of Insulin Aspart” value (0.2% methylparaben + […] m-cresol, pH 7.2, NaCl 140 mM) was 101.6%, the “Solubility of Insulin Aspart” value (0.2% methylparaben + […] m-cresol, pH 7.4, NaCl 50 mM) was 99.1% and the “Solubility of Insulin Aspart” value (0.2% methylparaben + […] m-cresol, pH 7.4, NaCl 80 mM) was 100.5%. For the same substance, the “Solubility of Insulin Aspart” value (0.2% methylparaben + […] m-cresol, pH 7.4, NaCl 110 mM) was 99.6%, the “Solubility of Insulin Aspart” value (0.2% methylparaben + […] m-cresol, pH 7.4, NaCl 140 mM) was 99.6% and the “Solubility of Insulin Aspart” value (0.2% methylparaben + […] m-cresol, pH 7.6, NaCl 50 mM) was 99.3%. The “Solubility of Insulin Aspart” value (0.2% methylparaben + […] m-cresol, pH 7.6, NaCl 80 mM) was 100.6%, the “Solubility of Insulin Aspart” value (0.2% methylparaben + […] m-cresol, pH 7.6, NaCl 110 mM) was 99.8% and the “Solubility of Insulin Aspart” value (0.2% methylparaben + […] m-cresol, pH 7.6, NaCl 140 mM) was 99.8%. The “Solubility of Insulin Aspart” value (0.2% phenol + […] m-cresol, pH 6.6, NaCl 50 mM) was 91.8%, the “Solubility of Insulin Aspart” value (0.2% phenol + […] m-cresol, pH 6.6, NaCl 80 mM) was 59.2% and the “Solubility of Insulin Aspart” value (0.2% phenol + […] m-cresol, pH 6.6, NaCl 110 mM) was 58.0%. The “Solubility of Insulin Aspart” value (0.2% phenol + […] m-cresol, pH 6.6, NaCl 140 mM) was 39.3%, the “Solubility of Insulin Aspart” value (0.2% phenol + […] m-cresol, pH 6.8, NaCl 50 mM) was 98.8% and the “Solubility of Insulin Aspart” value (0.2% phenol + […] m-cresol, pH 6.8, NaCl 80 mM) was 91.8%. The “Solubility of Insulin Aspart” value (0.2% phenol + […] m-cresol, pH 6.8, NaCl 110 mM) was 72.8%, the “Solubility of Insulin Aspart” value (0.2% phenol + […] m-cresol, pH 6.8, NaCl 140 mM) was 50.9% and the “Solubility of Insulin Aspart” value (0.2% phenol + […] m-cresol, pH 7.0, NaCl 50 mM) was 99.1%. The “Solubility of Insulin Aspart” value (0.2% phenol + […] m-cresol, pH 7.0, NaCl 80 mM) was 100.6%, the “Solubility of Insulin Aspart” value (0.2% phenol + […] m-cresol, pH 7.0, NaCl 110 mM) was 99.9% and the “Solubility of Insulin Aspart” value (0.2% phenol + […] m-cresol, pH 7.0, NaCl 140 mM) was 88.9%. For the same substance, the “Solubility of Insulin Aspart” value (0.2% phenol + […] m-cresol, pH 7.2, NaCl 50 mM) was 99.1%, the “Solubility of Insulin Aspart” value (0.2% phenol + […] m-cresol, pH 7.2, NaCl 80 mM) was 100.5% and the “Solubility of Insulin Aspart” value (0.2% phenol + […] m-cresol, pH 7.2, NaCl 110 mM) was 100.0%. For the same substance, the “Solubility of Insulin Aspart” value (0.2% phenol + […] m-cresol, pH 7.2, NaCl 140 mM) was 99.7%, the “Solubility of Insulin Aspart” value (0.2% phenol + […] m-cresol, pH 7.4, NaCl 50 mM) was 99.2% and the “Solubility of Insulin Aspart” value (0.2% phenol + […] m-cresol, pH 7.4, NaCl 80 mM) was 100.6%. For the same substance, the “Solubility of Insulin Aspart” value (0.2% phenol + […] m-cresol, pH 7.4, NaCl 110 mM) was 100.0%, the “Solubility of Insulin Aspart” value (0.2% phenol + […] m-cresol, pH 7.4, NaCl 140 mM) was 99.7% and the “Solubility of Insulin Aspart” value (0.2% phenol + […] m-cresol, pH 7.6, NaCl 50 mM) was 99.2%. For the same substance, the “Solubility of Insulin Aspart” value (0.2% phenol + […] m-cresol, pH 7.6, NaCl 80 mM) was 100.8%, the “Solubility of Insulin Aspart” value (0.2% phenol + […] m-cresol, pH 7.6, NaCl 110 mM) was 100.2% and the “Solubility of Insulin Aspart” value (0.2% phenol + […] m-cresol, pH 7.6, NaCl 140 mM) was 99.8%. The “Solubility of Insulin Aspart” value ([…] phenol + […] m-cresol, pH 6.6, NaCl 50 mM) was 97.9%, the “Solubility of Insulin Aspart” value ([…] phenol + […] m-cresol, pH 6.6, NaCl 80 mM) was 86.3% and the “Solubility of Insulin Aspart” value ([…] phenol + […] m-cresol, pH 6.6, NaCl 110 mM) was 54.4%. For the same substance, the “Solubility of Insulin Aspart” value ([…] phenol + […] m-cresol, pH 6.6, NaCl 140 mM) was 38.3%, the “Solubility of Insulin Aspart” value ([…] phenol + […] m-cresol, pH 6.8, NaCl 50 mM) was 99.8% and the “Solubility of Insulin Aspart” value ([…] phenol + […] m-cresol, pH 6.8, NaCl 80 mM) was 97.9%. For the same substance, the “Solubility of Insulin Aspart” value ([…] phenol + […] m-cresol, pH 6.8, NaCl 110 mM) was 97.5%, the “Solubility of Insulin Aspart” value ([…] phenol + […] m-cresol, pH 6.8, NaCl 140 mM) was 60.5% and the “Solubility of Insulin Aspart” value ([…] phenol + […] m-cresol, pH 7.0, NaCl 50 mM) was 99.7%. For the same substance, the “Solubility of Insulin Aspart” value ([…] phenol + […] m-cresol, pH 7.0, NaCl 80 mM) was 99.3%, the “Solubility of Insulin Aspart” value ([…] phenol + […] m-cresol, pH 7.0, NaCl 110 mM) was 99.3% and the “Solubility of Insulin Aspart” value ([…] phenol + […] m-cresol, pH 7.0, NaCl 140 mM) was 100.2%. The “Solubility of Insulin Aspart” value ([…] phenol + […] m-cresol, pH 7.2, NaCl 50 mM) was 99.1%, the “Solubility of Insulin Aspart” value ([…] phenol + […] m-cresol, pH 7.2, NaCl 80 mM) was 99.2% and the “Solubility of Insulin Aspart” value ([…] phenol + […] m-cresol, pH 7.2, NaCl 110 mM) was 99.2%. For the same substance, the “Solubility of Insulin Aspart” value ([…] phenol + […] m-cresol, pH 7.2, NaCl 140 mM) was 101.1%, the “Solubility of Insulin Aspart” value ([…] phenol + […] m-cresol, pH 7.4, NaCl 50 mM) was 100.0% and the “Solubility of Insulin Aspart” value ([…] phenol + […] m-cresol, pH 7.4, NaCl 80 mM) was 99.6%. For the same substance, the “Solubility of Insulin Aspart” value ([…] phenol + […] m-cresol, pH 7.4, NaCl 110 mM) was 99.5%, the “Solubility of Insulin Aspart” value ([…] phenol + […] m-cresol, pH 7.4, NaCl 140 mM) was 101.1% and the “Solubility of Insulin Aspart” value ([…] phenol + […] m-cresol, pH 7.6, NaCl 50 mM) was 100.1%. For the same substance, the “Solubility of Insulin Aspart” value ([…] phenol + […] m-cresol, pH 7.6, NaCl 80 mM) was 99.7%, the “Solubility of Insulin Aspart” value ([…] phenol + […] m-cresol, pH 7.6, NaCl 110 mM) was 99.4% and the “Solubility of Insulin Aspart” value ([…] phenol + […] m-cresol, pH 7.6, NaCl 140 mM) was 101.1%.
